Assay results reported in US20030082150A1.

Columns and labels:
[1] = molecular target: HLA.A1 molecule on cells that do not express the antigen MAGE-1 (infected with control adenovirus Ad-βgal) (human); assay: cell-based or functional assay
[2] = molecular target: Mage-1 antigenic nonapeptide presented by the HLA.A1 molecule on cells (human) (UniProt P43355); assay: cell-based or functional assay

In the case of “T cell receptor of the anti-Mage-1 CTL clone 82:30 (TCR)”, the % lysis, 51Cr release 4 h, E/T 0.1, C1R infected Ad β gal (500 pfu/cell) [1] is reported as 2%, the % lysis, 51Cr release 4 h, E/T 0.1, Gerlach E- infected Ad β gal (500 pfu/cell) [1] is reported as 2% and the % lysis, 51Cr release 4 h, E/T 0.3, C1R infected Ad β gal (500 pfu/cell) [1] is reported as 1%. For the same sequence, the % lysis, 51Cr release 4 h, E/T 0.3, Gerlach E- infected Ad β gal (500 pfu/cell) [1] was 0%, the % lysis, 51Cr release 4 h, E/T 1, C1R infected Ad β gal (500 pfu/cell) [1] was 3% and the % lysis, 51Cr release 4 h, E/T 1, Gerlach E- infected Ad β gal (500 pfu/cell) [1] was 0%. It also gave a % lysis, 51Cr release 4 h, E/T 3, C1R infected Ad β gal (500 pfu/cell) [1] of 4%, a % lysis, 51Cr release 4 h, E/T 3, Gerlach E- infected Ad β gal (500 pfu/cell) [1] of 0% and a % lysis, 51Cr release 4 h, E/T 10, C1R infected Ad β gal (500 pfu/cell) [1] of 2%. For the same sequence, the % lysis, 51Cr release 4 h, E/T 10, Gerlach E- infected Ad β gal (500 pfu/cell) [1] was 0%, the % lysis, 51Cr release 4 h, E/T 30, C1R infected Ad β gal (500 pfu/cell) [1] was 3% and the % lysis, 51Cr release 4 h, E/T 30, Gerlach E- infected Ad β gal (500 pfu/cell) [1] was 0%. It also gave a TNF produced by the CTL clone, +CTL, Gerlach E- infected with Ad. βgal, 50 pfu/cell [1] of 0 pg TNF, a TNF produced by the CTL clone, +CTL, Gerlach E- infected with Ad. βgal, 100 pfu/cell [1] of 0 pg TNF and a % lysis, 51Cr release 4 h, E/T 0.1, C1R infected Ad Mage-1 (500 pfu/cell) [2] of 28%. It also gave a % lysis, 51Cr release 4 h, E/T 0.1, C1R transfected with Mage-1 [2] of 19%, a % lysis, 51Cr release 4 h, E/T 0.1, Gerlach E- infected Ad Mage-1 (500 pfu/cell) [2] of 2% and a % lysis, 51Cr release 4 h, E/T 0.3, C1R infected Ad Mage-1 (500 pfu/cell) [2] of 44%. It also gave a % lysis, 51Cr release 4 h, E/T 0.3, C1R transfected with Mage-1 [2] of 25%, a % lysis, 51Cr release 4 h, E/T 0.3, Gerlach E- infected Ad Mage-1 (500 pfu/cell) [2] of 5% and a % lysis, 51Cr release 4 h, E/T 1, C1R infected Ad Mage-1 (500 pfu/cell) [2] of 44%. It also gave a % lysis, 51Cr release 4 h, E/T 1, C1R transfected with Mage-1 [2] of 30%, a % lysis, 51Cr release 4 h, E/T 1, Gerlach E- infected Ad Mage-1 (500 pfu/cell) [2] of 6% and a % lysis, 51Cr release 4 h, E/T 3, C1R infected Ad Mage-1 (500 pfu/cell) [2] of 61%. The % lysis, 51Cr release 4 h, E/T 3, C1R transfected with Mage-1 [2] was 45%, the % lysis, 51Cr release 4 h, E/T 3, Gerlach E- infected Ad Mage-1 (500 pfu/cell) [2] was 13% and the % lysis, 51Cr release 4 h, E/T 10, C1R infected Ad Mage-1 (500 pfu/cell) [2] was 59%. The % lysis, 51Cr release 4 h, E/T 10, C1R transfected with Mage-1 [2] was 40%, the % lysis, 51Cr release 4 h, E/T 10, Gerlach E- infected Ad Mage-1 (500 pfu/cell) [2] was 15% and the % lysis, 51Cr release 4 h, E/T 30, C1R infected Ad Mage-1 (500 pfu/cell) [2] was 62%. The % lysis, 51Cr release 4 h, E/T 30, C1R transfected with Mage-1 [2] was 33%, the % lysis, 51Cr release 4 h, E/T 30, Gerlach E- infected Ad Mage-1 (500 pfu/cell) [2] was 15% and the TNF produced by the CTL clone, +CTL, Gerlach E+ (HLA A1+) (Mage 1+) [2] was 45 pg TNF. It also gave a TNF produced by the CTL clone, +CTL, Gerlach E- infected with Ad. Mage 1, 50 pfu/cell [2] of 4 pg TNF, a TNF produced by the CTL clone, +CTL, Gerlach E- infected with Ad. Mage 1, 100 pfu/cell [2] of 12 pg TNF and an optical density (MTT, WEHI-164-13 viability) of 24 h supernatant, +CTL, Gerlach E+ (HLA A1+) (Mage 1+) (optical density) [2] of 0.17. It also gave an optical density (MTT, WEHI-164-13 viability) of 24 h supernatant, +CTL, Gerlach E- infected with Ad. Mage 1, 50 pfu/cell (optical density) [2] of 0.58 and an optical density (MTT, WEHI-164-13 viability) of 24 h supernatant, +CTL, Gerlach E- infected with Ad. Mage 1, 100 pfu/cell (optical density) [2] of 0.355.
